From US7842469B2, “Bioluminescence resonance energy transfer (BRET) systems and methods of use thereof” (Stanford University, priority 2005, dated 2010)

How the values were obtained:
[1] = Bioluminescence emission spectra; format: physicochemical; conditions: emission spectrum with native coelenterazine
Protocol: (§1) Serum stability measurements were done by mixing 0.5 μl dilute Luciferase with either 20 μl mouse serum or 50 μl rat serum (Equitech-Bio, Kerrville, Tex.) placing the sample in a 37° C. incubator, and removing aliquots for activity testing. To calculate serum half-lives, mono-exponential decay curves were fit to the serum stability data using a Nelder/Mead Simplex non-linear least squares minimization algorithm provided by the Octave numerical programming language. Emission spectra at ambient temperature were measured using a Triax 320 (Horiba Jobin Yvon, Edison, N.J.), which incorporates an optical grating device with a liquid N2 cooled CCD detector.

[2] = Luciferase activity of purified RLuc mutants (light output integrated over 10 s, luminometer); format: biochemical; conditions: relative to native enzyme; for Activity (relative to RLuc) bc: benzyl-coelenterazine; for Activity (relative to RLuc) bdc: bisdeoxycoelenterazine; for Activity (relative to RLuc) cp: coelenterazine-cp; for Activity (relative to RLuc) n: coelenterazine-n; for Activity (relative to RLuc) native: native coelenterazine
Source text: Luminometer Calibration: Light measurements were made using a Turner 20/20 and later a Turner 20/20n luminometer (Turner Designs, Sunnyvale, Calif.). The luminometers were calibrated to absolute units (photons/s) using the luminol light standard performed in dimethyl sulfoxide (DMSO). No corrections were applied for the spectral sensitivity of the luminometer, as the spectral peak of luminol chemiluminescence in DMSO (486 nm) is close to the spectral peak of Renilla Luciferase bioluminescence (482 nm).
Characterization of Renilla Luciferase Mutants: Luciferase activity was measured by adding 1 μl of sample (diluted as necessary in EB containing 1% HSA) to 100 μl room temperature 100 mM sodium phosphate buffer (pH 7), manually adding 1 μl of 0.5 μg/μl coelenterazine or analog, manually mixing, and reading for 10 s in a luminometer. The time between the addition of the luciferin and the start of measurement was approximately 4 s.

[3] = Serum stability in mouse serum at 37° C.; format: in vitro ADME; conditions: mouse serum, 37° C., mono-exponential fit
Protocol: as §1

[4] = Serum stability in rat serum at 37° C.; format: in vitro ADME; conditions: mono-exponential fit
Protocol: as §1

| Molecule | Wavelength (nm) mean [1] [nm] | Wavelength (nm) peak [1] [nm] | Activity (relative to RLuc) bc [2] | Activity (relative to RLuc) bdc [2] | Activity (relative to RLuc) cp [2] | Activity (relative to RLuc) n [2] | Activity (relative to RLuc) native [2] | Serum τ1/2 (h) mouse [3] [h] | Serum τ1/2 (h) rat [4] [h] |
| --- | --- | --- | --- | --- | --- | --- | --- | --- | --- |
| C124A/L203R: RLuc mutant C124A/L203R (protein) MASKVYDPEQRKRMITGPQWWARCKQMNVLDSFINYYDSEKHAENAVIFLHGNAASSYLWRHVVPHIEPVARCIIPDLIGMGKSGKSGNGSYRLLDHYKYLTAWFELLNLPKKIIFVGHDWGAALAFHYSYEHQDKIKAIVHAESVVDVIESWDEWPDIEEDIALIKSEEGEKMVLENNFFVETMLPSKIMRKLEPEEFAAYREPFKEKGEVRRPTLSWPREIPLVKGGKPDVVQIVRNYNAYLRASDDLPKMFIESDPGFFSNAIVEGAKKFPNTEFVKVKGLHFSQEDAPDEMGKYIKSFVERVLKNEQ | 501 | 484 | 0.55 | 0.43 | 0.52 | 0.41 | 0.55 | 2.7 | 2.2 |
| C124A/K300A: RLuc mutant C124A/K300A (protein) MASKVYDPEQRKRMITGPQWWARCKQMNVLDSFINYYDSEKHAENAVIFLHGNAASSYLWRHVVPHIEPVARCIIPDLIGMGKSGKSGNGSYRLLDHYKYLTAWFELLNLPKKIIFVGHDWGAALAFHYSYEHQDKIKAIVHAESVVDVIESWDEWPDIEEDIALIKSEEGEKMVLENNFFVETMLPSKIMRKLEPEEFAAYLEPFKEKGEVRRPTLSWPREIPLVKGGKPDVVQIVRNYNAYLRASDDLPKMFIESDPGFFSNAIVEGAKKFPNTEFVKVKGLHFSQEDAPDEMGKYIASFVERVLKNEQ | 497 | 481 | 1.0 | 1.3 | 1.1 | 1.0 | 1.1 | 3.5 | 3.9 |
| C124A/Q235A: RLuc mutant C124A/Q235A (protein) MASKVYDPEQRKRMITGPQWWARCKQMNVLDSFINYYDSEKHAENAVIFLHGNAASSYLWRHVVPHIEPVARCIIPDLIGMGKSGKSGNGSYRLLDHYKYLTAWFELLNLPKKIIFVGHDWGAALAFHYSYEHQDKIKAIVHAESVVDVIESWDEWPDIEEDIALIKSEEGEKMVLENNFFVETMLPSKIMRKLEPEEFAAYLEPFKEKGEVRRPTLSWPREIPLVKGGKPDVVAIVRNYNAYLRASDDLPKMFIESDPGFFSNAIVEGAKKFPNTEFVKVKGLHFSQEDAPDEMGKYIKSFVERVLKNEQ | 489 | 473 | 1.1 | 1.2 | 1.1 | 1.0 | 1.2 | 3.3 | 3.6 |
| C124A/G229E: RLuc mutant C124A/G229E (protein) MASKVYDPEQRKRMITGPQWWARCKQMNVLDSFINYYDSEKHAENAVIFLHGNAASSYLWRHVVPHIEPVARCIIPDLIGMGKSGKSGNGSYRLLDHYKYLTAWFELLNLPKKIIFVGHDWGAALAFHYSYEHQDKIKAIVHAESVVDVIESWDEWPDIEEDIALIKSEEGEKMVLENNFFVETMLPSKIMRKLEPEEFAAYLEPFKEKGEVRRPTLSWPREIPLVKGEKPDVVQIVRNYNAYLRASDDLPKMFIESDPGFFSNAIVEGAKKFPNTEFVKVKGLHFSQEDAPDEMGKYIKSFVERVLKNEQ | 490 | 473 | 0.01 | 0.01 | 0.03 | 0.03 | 0.02 | 1.9 | 1.8 |
| C124A/M295I: RLuc mutant C124A/M295I (protein) MASKVYDPEQRKRMITGPQWWARCKQMNVLDSFINYYDSEKHAENAVIFLHGNAASSYLWRHVVPHIEPVARCIIPDLIGMGKSGKSGNGSYRLLDHYKYLTAWFELLNLPKKIIFVGHDWGAALAFHYSYEHQDKIKAIVHAESVVDVIESWDEWPDIEEDIALIKSEEGEKMVLENNFFVETMLPSKIMRKLEPEEFAAYLEPFKEKGEVRRPTLSWPREIPLVKGGKPDVVQIVRNYNAYLRASDDLPKMFIESDPGFFSNAIVEGAKKFPNTEFVKVKGLHFSQEDAPDEIGKYIKSFVERVLKNEQ | 497 | 480 | 0.83 | 0.86 | 0.57 | 0.72 | 1.0 | 5.0 | 4.9 |
| C124A/S257G: RLuc mutant C124A/S257G (protein) MASKVYDPEQRKRMITGPQWWARCKQMNVLDSFINYYDSEKHAENAVIFLHGNAASSYLWRHVVPHIEPVARCIIPDLIGMGKSGKSGNGSYRLLDHYKYLTAWFELLNLPKKIIFVGHDWGAALAFHYSYEHQDKIKAIVHAESVVDVIESWDEWPDIEEDIALIKSEEGEKMVLENNFFVETMLPSKIMRKLEPEEFAAYLEPFKEKGEVRRPTLSWPREIPLVKGGKPDVVQIVRNYNAYLRASDDLPKMFIEGDPGFFSNAIVEGAKKFPNTEFVKVKGLHFSQEDAPDEMGKYIKSFVERVLKNEQ | 493 | 477 | 0.95 | 3.0 | 1.3 | 1.1 | 1.1 | 1.3 | 1.4 |
| C124A/F262L: RLuc mutant C124A/F262L (protein) MASKVYDPEQRKRMITGPQWWARCKQMNVLDSFINYYDSEKHAENAVIFLHGNAASSYLWRHVVPHIEPVARCIIPDLIGMGKSGKSGNGSYRLLDHYKYLTAWFELLNLPKKIIFVGHDWGAALAFHYSYEHQDKIKAIVHAESVVDVIESWDEWPDIEEDIALIKSEEGEKMVLENNFFVETMLPSKIMRKLEPEEFAAYLEPFKEKGEVRRPTLSWPREIPLVKGGKPDVVQIVRNYNAYLRASDDLPKMFIESDPGFLSNAIVEGAKKFPNTEFVKVKGLHFSQEDAPDEMGKYIKSFVERVLKNEQ | 495 | 478 | 0.03 | 0.03 | 0.01 | 0.06 | 0.03 | 5.8 | 6.4 |
